Laboratory results published in paper PMC4243253.

Test system: N[C@@H](CC(=O)c1ccccc1NC=O)C(=O)O
Test: purified protein
Conditions: pH 7.4; 25.0 °C

BaKynB (Bacillus anthracis)
Km: 400 ± 50 µM | Vmax: 0.0654 µmol/min | kcat/Km: 126000 M⁻¹ s⁻¹
